Experimental data from US20220145298.

Columns and labels:
[1] = system: TnsA(wt)BC + TniQ-Cascade transposition system (Aeromonas salmonicida); assay: cell_activity; conditions: wild-type TnsA; native array and native target; no detectable transposition
[2] = system: TnsA(A125D)BC + TniQ-Cascade transposition system (Aeromonas salmonicida); assay: cell_activity; conditions: native array, native A.s. target on F plasmid; transposition in E. coli, mate-out; TACC PAM

AGGACUGGAAGAAAUCAUCCAAGUUGGGGACU / TCAGGACCGGAAGGTAGCAGCCAAGGCGGGGGACTCGAGTGCCGGGATGTGGCTGATGGGGCCACCAC / GTGGTGGCCCCATCAGCCACATCCCGGCACTCGAGTCCCCCGCCTTGGCTGCTACCTTCCGGTCCTGA [ffs wild-type guide (10 mismatches) ; ffs target]
activity [1]: 0% | activity [2]: 0.0188%
